Like-named read-outs stand apart in the source and are kept apart here.
T1: human VEGF (hVEGF) (human, UniProt P15692 181-395)
T1 construct: also called VEGF-A
T1 sequence: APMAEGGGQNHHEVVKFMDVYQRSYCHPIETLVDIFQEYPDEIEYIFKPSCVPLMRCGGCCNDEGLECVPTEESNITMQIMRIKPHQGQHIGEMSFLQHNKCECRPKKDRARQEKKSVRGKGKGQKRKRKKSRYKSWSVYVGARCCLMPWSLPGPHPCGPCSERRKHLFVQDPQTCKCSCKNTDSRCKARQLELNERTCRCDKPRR

B1: G6.31 HC-A40E (Fab, name in Kabat numbering, V domains shown)
VH: EVQLVESGGGLVQPGGSLRLSCAASGFTISDYWIHWVRQEPGKGLEWVAGITPAGGYTYYADSVKGRFTISADTSKNTAYLQMNSLRAEDTAVYYCARFVFFLPYAMDYWGQGTLVTVSS
VL: DIQMTQSPSSLSASVGDRVTITCRASQDVSTAVAWYQQKPGKAPKLLIYSASFLYSGVPSRFSGSGSGTDFTLTISSLQPEDFATYYCQQGYGNPFTFGQGTKVEIK
notes: Fab
B2: G6.31 LC-D28R (Fab, V domains shown)
VH: EVQLVESGGGLVQPGGSLRLSCAASGFTISDYWIHWVRQAPGKGLEWVAGITPAGGYTYYADSVKGRFTISADTSKNTAYLQMNSLRAEDTAVYYCARFVFFLPYAMDYWGQGTLVTVSS
VL: DIQMTQSPSSLSASVGDRVTITCRASQRVSTAVAWYQQKPGKAPKLLIYSASFLYSGVPSRFSGSGSGTDFTLTISSLQPEDFATYYCQQGYGNPFTFGQGTKVEIK
notes: Fab
B3: G6.31 HC-Y58R (Fab, name in Kabat numbering, V domains shown)
VH: EVQLVESGGGLVQPGGSLRLSCAASGFTISDYWIHWVRQAPGKGLEWVAGITPAGGYTRYADSVKGRFTISADTSKNTAYLQMNSLRAEDTAVYYCARFVFFLPYAMDYWGQGTLVTVSS
VL: DIQMTQSPSSLSASVGDRVTITCRASQDVSTAVAWYQQKPGKAPKLLIYSASFLYSGVPSRFSGSGSGTDFTLTISSLQPEDFATYYCQQGYGNPFTFGQGTKVEIK
notes: Fab
B4: G6.31 LC-N94R (Fab, V domains shown)
VH: EVQLVESGGGLVQPGGSLRLSCAASGFTISDYWIHWVRQAPGKGLEWVAGITPAGGYTYYADSVKGRFTISADTSKNTAYLQMNSLRAEDTAVYYCARFVFFLPYAMDYWGQGTLVTVSS
VL: DIQMTQSPSSLSASVGDRVTITCRASQDVSTAVAWYQQKPGKAPKLLIYSASFLYSGVPSRFSGSGSGTDFTLTISSLQPEDFATYYCQQGYGRPFTFGQGTKVEIK
notes: Fab
B5: G6.31 LC-N94Q (Fab, V domains shown)
VH: EVQLVESGGGLVQPGGSLRLSCAASGFTISDYWIHWVRQAPGKGLEWVAGITPAGGYTYYADSVKGRFTISADTSKNTAYLQMNSLRAEDTAVYYCARFVFFLPYAMDYWGQGTLVTVSS
VL: DIQMTQSPSSLSASVGDRVTITCRASQDVSTAVAWYQQKPGKAPKLLIYSASFLYSGVPSRFSGSGSGTDFTLTISSLQPEDFATYYCQQGYGQPFTFGQGTKVEIK
notes: Fab
B6: G6.31 HC-T57E (Fab, name in Kabat numbering, V domains shown)
VH: EVQLVESGGGLVQPGGSLRLSCAASGFTISDYWIHWVRQAPGKGLEWVAGITPAGGYEYYADSVKGRFTISADTSKNTAYLQMNSLRAEDTAVYYCARFVFFLPYAMDYWGQGTLVTVSS
VL: DIQMTQSPSSLSASVGDRVTITCRASQDVSTAVAWYQQKPGKAPKLLIYSASFLYSGVPSRFSGSGSGTDFTLTISSLQPEDFATYYCQQGYGNPFTFGQGTKVEIK
notes: Fab
B7: G6.31 HC-A53R (Fab, name in Kabat numbering, V domains shown)
VH: EVQLVESGGGLVQPGGSLRLSCAASGFTISDYWIHWVRQAPGKGLEWVAGITPRGGYTYYADSVKGRFTISADTSKNTAYLQMNSLRAEDTAVYYCARFVFFLPYAMDYWGQGTLVTVSS
VL: DIQMTQSPSSLSASVGDRVTITCRASQDVSTAVAWYQQKPGKAPKLLIYSASFLYSGVPSRFSGSGSGTDFTLTISSLQPEDFATYYCQQGYGNPFTFGQGTKVEIK
notes: Fab
B8: G6.31 LC-L73G (Fab, V domains shown)
VH: EVQLVESGGGLVQPGGSLRLSCAASGFTISDYWIHWVRQAPGKGLEWVAGITPAGGYTYYADSVKGRFTISADTSKNTAYLQMNSLRAEDTAVYYCARFVFFLPYAMDYWGQGTLVTVSS
VL: DIQMTQSPSSLSASVGDRVTITCRASQDVSTAVAWYQQKPGKAPKLLIYSASFLYSGVPSRFSGSGSGTDFTGTISSLQPEDFATYYCQQGYGNPFTFGQGTKVEIK
notes: Fab
B9: G6.31 LC-Y36G (Fab, V domains shown)
VH: EVQLVESGGGLVQPGGSLRLSCAASGFTISDYWIHWVRQAPGKGLEWVAGITPAGGYTYYADSVKGRFTISADTSKNTAYLQMNSLRAEDTAVYYCARFVFFLPYAMDYWGQGTLVTVSS
VL: DIQMTQSPSSLSASVGDRVTITCRASQDVSTAVAWGQQKPGKAPKLLIYSASFLYSGVPSRFSGSGSGTDFTLTISSLQPEDFATYYCQQGYGNPFTFGQGTKVEIK
notes: Fab
B10: G6.31 HC-N82aR (Fab, name in Kabat numbering, V domains shown)
VH: EVQLVESGGGLVQPGGSLRLSCAASGFTISDYWIHWVRQAPGKGLEWVAGITPAGGYTYYADSVKGRFTISADTSKNTAYLQMRSLRAEDTAVYYCARFVFFLPYAMDYWGQGTLVTVSS
VL: DIQMTQSPSSLSASVGDRVTITCRASQDVSTAVAWYQQKPGKAPKLLIYSASFLYSGVPSRFSGSGSGTDFTLTISSLQPEDFATYYCQQGYGNPFTFGQGTKVEIK
notes: Fab
B11: G6.31 HC-Q81S (Fab, name in Kabat numbering, V domains shown)
VH: EVQLVESGGGLVQPGGSLRLSCAASGFTISDYWIHWVRQAPGKGLEWVAGITPAGGYTYYADSVKGRFTISADTSKNTAYLSMNSLRAEDTAVYYCARFVFFLPYAMDYWGQGTLVTVSS
VL: DIQMTQSPSSLSASVGDRVTITCRASQDVSTAVAWYQQKPGKAPKLLIYSASFLYSGVPSRFSGSGSGTDFTLTISSLQPEDFATYYCQQGYGNPFTFGQGTKVEIK
notes: Fab
B12: G6.31 LC-Q89T (Fab, V domains shown)
VH: EVQLVESGGGLVQPGGSLRLSCAASGFTISDYWIHWVRQAPGKGLEWVAGITPAGGYTYYADSVKGRFTISADTSKNTAYLQMNSLRAEDTAVYYCARFVFFLPYAMDYWGQGTLVTVSS
VL: DIQMTQSPSSLSASVGDRVTITCRASQDVSTAVAWYQQKPGKAPKLLIYSASFLYSGVPSRFSGSGSGTDFTLTISSLQPEDFATYYCTQGYGNPFTFGQGTKVEIK
notes: Fab
B13: G6.31 LC-S50M (Fab, V domains shown)
VH: EVQLVESGGGLVQPGGSLRLSCAASGFTISDYWIHWVRQAPGKGLEWVAGITPAGGYTYYADSVKGRFTISADTSKNTAYLQMNSLRAEDTAVYYCARFVFFLPYAMDYWGQGTLVTVSS
VL: DIQMTQSPSSLSASVGDRVTITCRASQDVSTAVAWYQQKPGKAPKLLIYMASFLYSGVPSRFSGSGSGTDFTLTISSLQPEDFATYYCQQGYGNPFTFGQGTKVEIK
notes: Fab

Tests used:
human VEGF (hVEGF) [1] = biological target: T1, human VEGF (hVEGF); assay: BIACORE SPR on immobilised hVEGF; label beside the mutation on the structure of the VEGF-bound G6 Fab (PDB 2FJG)
human VEGF (hVEGF) [2] = biological target: T1, human VEGF (hVEGF); assay: SPR single-cycle;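 as to Fold change (relative to G6.31): fab variants injected over hVEGF immobilized on a CM5 chip (Biacore T200), threefold dilution series from 0.02 to 50 nM, kinetics fitted with a 1:1 Langmuir model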
Excerpt: (§1) To determine the binding affinity of selected Fab variants, SPR measurement with a BIACORE® T200 instrument was used. Briefly, series S sensor chip CM5 was activated with 1-ethyl-3-(3-dimethylaminopropyl) carbodiimide (EDC) and N-hydroxysuccinimide (NHS) reagents according to the supplier's instructions, and human VEGF (hVEGF) was coupled to achieve 50-80 response units (RU), then following by blocking un-reacted groups with 1M ethanolamine.
(§2) Three-fold serial dilutions of Fab in HBS-P buffer (0.01 M HEPES pH 7.4, 0.15 M NaCl, 0.005% surfactant P20) from low (0.02 nM) to high (50 nM) were injected (flow rate: 30 μl/min). The binding responses on hVEGF were corrected by subtracting of RU from a blank flow cell. The sensorgram was recorded and subject to reference and buffer subtraction before evaluating by BIACORE® T200 Evaluation Software (version 2.0). Association rates (kₒₙ) and dissociation rates (koff) were calculated using a simple one-to-one Langmuir binding model. The equilibrium dissociation constant (Kd) was calculated as the ratio koff/kₒₙ.

human VEGF (hVEGF) [3] = biological target: T1, human VEGF (hVEGF); assay: SPR single-cycle; remark: listed apart in the source;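 as to Fold change (relative to G6.31): fab variants injected over hVEGF immobilized on a CM5 chip (Biacore T200), threefold dilution series from 0.02 to 50 nM, kinetics fitted with a 1:1 Langmuir model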
Excerpt: as §1, §2

human VEGF (hVEGF) [4] = biological target: T1, human VEGF (hVEGF); assay: BIACORE SPR on immobilised hVEGF; label beside the mutation on the structure of the VEGF-bound G6 Fab (PDB 2FJG); remark: listed apart in the source
human VEGF (hVEGF) [5] = biological target: T1, human VEGF (hVEGF); assay: SPR
Excerpt: as §1, §2

human VEGF (hVEGF) [6] = biological target: T1, human VEGF (hVEGF); assay: SPR; remark: listed apart in the source
human VEGF (hVEGF) [7] = biological target: T1, human VEGF (hVEGF); assay: SPR multiple-cycle
Excerpt: as §1, §2

Binder	fold change in binding affinity (Kd) compared to G6.31 (human VEGF (hVEGF) [1])	Fold difference (relative to G6.31) (human VEGF (hVEGF) [3])	Kd (human VEGF (hVEGF) [3])	koff (human VEGF (hVEGF) [3])	kon (human VEGF (hVEGF) [3])	fold change in binding affinity (Kd) compared to G6.31 (human VEGF (hVEGF) [4])	fold increase in affinity compared to wild-type G6.31 (human VEGF (hVEGF) [6])	also measured
B1	4 x	3.8 fold	410 pM	0.000466 s⁻¹	1.13e+06 M⁻¹ s⁻¹	–	–	Fold change (relative to G6.31) (human VEGF (hVEGF) [2]): 0.6 fold; Kd (human VEGF (hVEGF) [2]): 2630 pM; koff (human VEGF (hVEGF) [2]): 0.000517 s⁻¹; kon (human VEGF (hVEGF) [2]): 197000 M⁻¹ s⁻¹
B2	–	2.8 fold	560 pM	0.000655 s⁻¹	1.17e+06 M⁻¹ s⁻¹	3 x	–	–
B3	9 x	9.1 fold	170 pM	0.000255 s⁻¹	1.48e+06 M⁻¹ s⁻¹	–	8 to 9 fold	Fold improved (relative to WT) (human VEGF (hVEGF) [5]): 6.9 fold; Kd (human VEGF (hVEGF) [5]): 76 pM; koff (human VEGF (hVEGF) [5]): 0.000184 s⁻¹; kon (human VEGF (hVEGF) [5]): 2.42e+06 M⁻¹ s⁻¹
B4	–	–	–	–	–	–	–	Kd (human VEGF (hVEGF) [7]): 2090 pM; koff (human VEGF (hVEGF) [7]): 0.000407 s⁻¹; kon (human VEGF (hVEGF) [7]): 194000 M⁻¹ s⁻¹
B5	–	0.3 fold	4780 pM	0.00133 s⁻¹	278000 M⁻¹ s⁻¹	–	–	Kd (human VEGF (hVEGF) [7]): 1140 pM; koff (human VEGF (hVEGF) [7]): 0.000362 s⁻¹; kon (human VEGF (hVEGF) [7]): 318000 M⁻¹ s⁻¹
B6	8 x	7.7 fold	200 pM	0.000402 s⁻¹	1.93e+06 M⁻¹ s⁻¹	–	8 to 9 fold	–
B7	4 x	3.7 fold	420 pM	0.00035 s⁻¹	829000 M⁻¹ s⁻¹	–	–	–
B8	–	1.4 fold	1090 pM	0.000644 s⁻¹	589000 M⁻¹ s⁻¹	2 x	~1.6 fold	–
B9	–	0.6 fold	2470 pM	0.000558 s⁻¹	225000 M⁻¹ s⁻¹	0.5 x	–	–
B10	7 x	6.7 fold	230 pM	0.000322 s⁻¹	1.39e+06 M⁻¹ s⁻¹	–	~6.6 fold	Fold improved (relative to WT) (human VEGF (hVEGF) [5]): 6.8 fold; Kd (human VEGF (hVEGF) [5]): 77 pM; koff (human VEGF (hVEGF) [5]): 0.000124 s⁻¹; kon (human VEGF (hVEGF) [5]): 1.62e+06 M⁻¹ s⁻¹
B11	3 x	3.4 fold	450 pM	0.000487 s⁻¹	1.07e+06 M⁻¹ s⁻¹	–	–	–
B12	–	3.7 fold	420 pM	0.000493 s⁻¹	1.17e+06 M⁻¹ s⁻¹	4 x	–	–
B13	–	1.2 fold	1310 pM	0.000611 s⁻¹	467000 M⁻¹ s⁻¹	1 x	–	–

Source: patent US20210115124A1 (Genentech, published 2021)
